According to article PMC12240383, “Human herpesvirus 6B glycoprotein B postfusion structure, vulnerability mapping, and receptor recognition” (PLOS Pathogens, 2025):

T1: HHV-6B gB ectodomain (residues 1-680, strain Z29) with fusion loop substitutions, C-terminal Flag-tag (Human herpesvirus 6B (strain Z29), UniProt P36320 20-680, VGVV102-105 to HRTT | WLY187-189 to ATH)
T1 construct: signal peptide in the construct (predicted signal peptide residues 1-19); glycoprotein B of human herpesvirus 6B strain Z29, ectodomain residues 1-680; Same ectodomain as m1 (a trimer in the structure) with a Flag-tag instead of the His-tag; also called HHV-6B gB-Flag; wild-type HHV-6B gB-Flag; source: Expi293F, transiently transfected, purified from supernatant (Flag beads, 3xFlag peptide …)
T1 sequence: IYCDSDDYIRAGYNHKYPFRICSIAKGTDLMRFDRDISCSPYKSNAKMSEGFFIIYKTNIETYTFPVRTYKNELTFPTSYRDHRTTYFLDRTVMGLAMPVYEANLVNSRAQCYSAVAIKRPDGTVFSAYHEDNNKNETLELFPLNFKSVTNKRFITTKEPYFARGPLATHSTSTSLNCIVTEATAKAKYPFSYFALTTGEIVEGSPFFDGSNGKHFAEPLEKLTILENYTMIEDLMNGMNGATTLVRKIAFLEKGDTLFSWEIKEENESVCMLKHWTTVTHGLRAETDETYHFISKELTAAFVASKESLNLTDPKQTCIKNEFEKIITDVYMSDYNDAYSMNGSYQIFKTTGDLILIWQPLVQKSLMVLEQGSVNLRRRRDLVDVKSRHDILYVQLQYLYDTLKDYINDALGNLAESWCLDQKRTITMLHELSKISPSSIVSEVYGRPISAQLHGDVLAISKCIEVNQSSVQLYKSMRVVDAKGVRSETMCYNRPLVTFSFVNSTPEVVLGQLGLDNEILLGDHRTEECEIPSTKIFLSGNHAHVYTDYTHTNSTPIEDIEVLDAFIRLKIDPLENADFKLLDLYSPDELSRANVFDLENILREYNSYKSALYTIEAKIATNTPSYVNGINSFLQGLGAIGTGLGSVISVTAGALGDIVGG

B1: HHV-6B gB ectodomain (residues 1-680, strain Z29) with fusion loop substitutions, C-terminal His-tag (domain or fragment)
chain: T1 sequence
notes: signal peptide in the construct (predicted signal peptide residues 1-19); glycoprotein B of human herpesvirus 6B strain Z29, ectodomain residues 1-680; furin site 396RRRR|D400 not mutated, mostly uncleaved; also called HHV-6B gB-His; HHV-6B gB680-mut; source: Expi293F, transiently transfected, purified from supernatant (Ni Sepharose IMAC, Superdex 200 SEC); not shown: His6, C-terminal, kept
B2: human nectin-2 V-set domain (residues 1-158) fused with the Fc region of human IgG (Fc fusion)
chain: QDVRVQVLPEVRGQLGGTVELPCHLLPPVPGLYISLVTWQRPDAPANHQNVAAFHPKMGPSFPSPKPGSERLSFVSAKQSTGQDTEAELQDATLALHGLTVEDEGNYTCEFATFPKGSVRGMTWLRV
notes: signal peptide in the construct; human nectin cell adhesion molecule 2 (nectin-2), V-set domain, residues 1-158; also called V-set-Fc; source: Expi293F, transiently transfected, purified from supernatant (protein G resin, SEC)

How the values were obtained:
[1] = molecular target: the molecule itself; experiment: cryo-EM structure; HHV-6B gB-His at 10 mg/ml in PBS with 0.1% DDM; single-particle analysis, C3 symmetry applied, 2.8 Å; postfusion trimer
[2] = molecular target: B1; experiment: co-IP; purified proteins: 4 µg V-set-Fc with 8 µg HHV-6B gB (His- or Flag-tagged), 4°C 2 h, protein G beads overnight at 4°C; six washes in 50 mM HEPES pH 7.4, 150 mM NaCl, 5 mM EDTA, 0.5% NP40; immunoblot with anti-human IgG and anti-His or anti-Flag; conditions: both partners purified
[3] = molecular target: T1, HHV-6B gB ectodomain (residues 1-680, …); experiment: as above; conditions: both partners purified

Row | Binder | stoichiometry N [1] | binding result [2] | binding result [3]
1 | B1 | 3 | – | –
2 | B2 | – | binds | binds
